Experimental data from patent publication US6448071.

What was measured:
[1] = biological target: pMCMV loaded H-2 L^d (murine) (UniProt P01897)
[2] = biological target: QL9 loaded H-2 L^d (murine) (UniProt P01897); assay: flow cytometry, direct saturation of FITC-30.5.7 Fab on peptide-loaded RMA-S L^d cells
[3] = biological target: SL9 loaded H-2 L^d (murine) (UniProt P01897); assay: as above
[4] = biological target: p2Ca loaded H-2 L^d (murine) (UniProt P01897); assay: as above
[5] = biological target: H-2 L^d naturally loaded with endogenous peptides on cells (RENCA; MC57G L^d) (murine) (UniProt P01897); assay: direct flow cytometry on RENCA cells
[6] = biological target: unloaded H-2 L^d on RMA-S L^d cells (murine) (UniProt P01897); assay: direct flow cytometry on RMA-S L^d cells without added peptide
[7] = biological target: unloaded H-2 L^d on RMA-S L^d cells (murine) (UniProt P01897); assay: direct flow cytometry on RMA-S L^d cells
[8] = biological target: SIY loaded H-2 K^b on T2 K^b cells (mouse) (UniProt P01901); assay: direct flow cytometry on peptide-loaded T2 K^b cells
[9] = biological target: pVSV loaded H-2 K^b on T2 K^b cells (mouse) (UniProt P01901); assay: as above
[10] = biological target: SIY loaded H-2 K^bm3 on T2 K^bm3 cells (mouse); assay: direct flow cytometry on peptide-loaded T2 K^bm3 cells
[11] = biological target: SL9 loaded H-2 L^d (murine) (UniProt P01897); assay: direct flow cytometry on peptide-loaded RMA-S L^d cells
[12] = biological target: tum^- loaded H-2 L^d (murine) (UniProt P01897); assay: as above
[13] = biological target: p2Ca loaded H-2 L^d (murine) (UniProt P01897); assay: flow cytometry competition with constant FITC-30.5.7 Fab on peptide-loaded RMA-S L^d cells

Sequence of soluble divalent 2C TcR/Ig (A2KF29 whole entry, looked up, tested part not stated): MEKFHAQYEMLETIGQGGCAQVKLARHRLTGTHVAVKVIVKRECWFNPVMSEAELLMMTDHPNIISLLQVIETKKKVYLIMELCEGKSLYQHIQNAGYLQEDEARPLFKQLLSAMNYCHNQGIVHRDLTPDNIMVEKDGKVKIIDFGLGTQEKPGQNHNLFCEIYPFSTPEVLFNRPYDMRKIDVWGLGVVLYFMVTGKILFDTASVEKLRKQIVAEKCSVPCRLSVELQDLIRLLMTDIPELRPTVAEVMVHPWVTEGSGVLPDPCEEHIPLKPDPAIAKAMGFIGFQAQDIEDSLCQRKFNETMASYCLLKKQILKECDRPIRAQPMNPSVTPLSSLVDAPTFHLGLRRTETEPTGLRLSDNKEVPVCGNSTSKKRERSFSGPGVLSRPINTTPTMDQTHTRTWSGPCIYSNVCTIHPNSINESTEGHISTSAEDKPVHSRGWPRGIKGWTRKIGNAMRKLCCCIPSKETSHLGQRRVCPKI
Sequence of H-2 L^d naturally loaded with endogenous peptides on cells (RENCA; MC57G L^d) (murine) (P01897 25-362): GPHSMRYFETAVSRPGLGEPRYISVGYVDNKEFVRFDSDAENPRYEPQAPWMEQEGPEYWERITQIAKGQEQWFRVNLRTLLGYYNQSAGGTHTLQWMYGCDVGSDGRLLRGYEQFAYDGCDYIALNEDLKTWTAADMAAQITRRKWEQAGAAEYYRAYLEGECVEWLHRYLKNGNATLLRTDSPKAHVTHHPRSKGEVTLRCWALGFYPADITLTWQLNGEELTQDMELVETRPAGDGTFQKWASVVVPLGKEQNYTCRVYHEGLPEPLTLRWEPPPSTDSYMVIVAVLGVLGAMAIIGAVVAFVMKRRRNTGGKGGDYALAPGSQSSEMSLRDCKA
Sequence of unloaded H-2 L^d on RMA-S L^d cells (murine) (P01897 25-309): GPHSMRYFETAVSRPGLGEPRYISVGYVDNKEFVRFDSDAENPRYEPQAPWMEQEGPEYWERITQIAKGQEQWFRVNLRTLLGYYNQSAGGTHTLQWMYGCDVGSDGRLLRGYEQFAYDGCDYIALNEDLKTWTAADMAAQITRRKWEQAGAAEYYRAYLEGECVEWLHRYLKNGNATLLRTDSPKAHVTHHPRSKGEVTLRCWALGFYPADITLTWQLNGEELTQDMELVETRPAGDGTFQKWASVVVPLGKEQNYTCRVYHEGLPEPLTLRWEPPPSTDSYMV
Sequence of SL9 loaded H-2 L^d (murine) (P01897 25-309): as above
Sequence of p2Ca loaded H-2 L^d (murine) (P01897 25-309): as above
Sequence of SIY loaded H-2 K^b on T2 K^b cells (mouse) (P01901 22-369): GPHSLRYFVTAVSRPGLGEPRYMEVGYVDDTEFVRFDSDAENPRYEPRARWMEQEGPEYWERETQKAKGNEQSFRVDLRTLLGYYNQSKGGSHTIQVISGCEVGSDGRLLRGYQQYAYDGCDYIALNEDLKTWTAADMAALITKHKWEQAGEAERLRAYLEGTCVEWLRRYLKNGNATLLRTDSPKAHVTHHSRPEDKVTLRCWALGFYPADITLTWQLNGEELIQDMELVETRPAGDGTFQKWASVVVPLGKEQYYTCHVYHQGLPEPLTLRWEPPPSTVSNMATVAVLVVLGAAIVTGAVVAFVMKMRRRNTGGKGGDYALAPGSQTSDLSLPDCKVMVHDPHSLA
Sequence of pVSV loaded H-2 K^b on T2 K^b cells (mouse) (P01901 22-369): as above
Sequence of QL9 loaded H-2 L^d (murine) (P01897 25-309): as the sequence (P01897 25-309) above
Sequence of tum^- loaded H-2 L^d (murine) (P01897 25-309): as above
Sequence of pMCMV loaded H-2 L^d (murine) (P01897 25-309): as above

FITC labeled 30.5.7 Fab was tested, and the Kd [1] was 4.8 nM, the Kd [2] was 12.2 nM and the Kd [3] was 4.8 to 6.4 nM. It also gave a Kd [4] of 5.8 nM.
In the case of mAb 30.5.7 (antibody), the fold increase of reactivity on γ-IFN treated cells (5-50 units/ml) over untreated cells [5] is reported as 5 to 6 fold and the fold increase of mean channel fluorescence, cells at 27° C. against cells at 37° C. [6] is reported as 5 fold.
Substance “soluble divalent 2C TcR/Ig (from UniProt A2KF29)” has an MCF [7] of 10 MCF, an MCF [8] of 276 MCF and an MCF [9] of 14 MCF. The MCF [10] was 36 MCF, the MCF [11] was 100 MCF and the MCF [12] was 10 MCF. It also gave a Kapp [13] of 108 nM.
